The record followed here is paper PMC8026773.

The assay addresses human TREM2 Ig domain (aa 19-134), wild type, biotinylated on a BirA tag (human) (UniProt Q9NZC2). Briefly: BLI.

human TREM2 Ig domain (aa 19-134), wild type, biotinylated on a BirA tag (human), sequence (Q9NZC2 19-134): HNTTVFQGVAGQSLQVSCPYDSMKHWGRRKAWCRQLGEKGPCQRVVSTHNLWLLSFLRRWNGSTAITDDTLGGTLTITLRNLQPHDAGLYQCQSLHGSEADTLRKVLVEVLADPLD

In turn, “ApoE3 1-238 (C-term deletion) (domain or fragment)” came in with a Kd of 696 nM.
